Measured values reported in US20120208770A1.

Target: vimentin of SCCVII cells (cell-surface protein of murine squamous cell carcinoma cells and SCCVII tumors in C3H mice) (mouse (murine SCCVII cells)) (UniProt P20152)
Assay: cell-based or functional assay

UniProt P20152, sequence (P20152 2-466): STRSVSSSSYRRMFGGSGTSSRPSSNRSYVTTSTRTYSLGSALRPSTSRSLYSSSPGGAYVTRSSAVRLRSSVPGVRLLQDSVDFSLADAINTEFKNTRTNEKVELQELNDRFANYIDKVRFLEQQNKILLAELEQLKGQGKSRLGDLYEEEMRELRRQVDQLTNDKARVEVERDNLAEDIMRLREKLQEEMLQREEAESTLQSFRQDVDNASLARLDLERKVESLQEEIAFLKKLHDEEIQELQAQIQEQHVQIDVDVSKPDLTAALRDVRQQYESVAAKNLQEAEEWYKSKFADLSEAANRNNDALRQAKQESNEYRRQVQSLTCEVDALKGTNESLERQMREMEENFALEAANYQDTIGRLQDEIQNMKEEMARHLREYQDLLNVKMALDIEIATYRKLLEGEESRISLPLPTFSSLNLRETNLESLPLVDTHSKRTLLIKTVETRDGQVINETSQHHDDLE

- accumulation of peptide-biotin in SCCVII tumor (positive per field, DAB staining), co-administered with anti-vimentin (positive per field): 1.2
- accumulation of peptide-biotin in SCCVII tumor (positive per field, DAB staining), without anti-vimentin (positive per field): 19.6
Binder: H-VNTANSTGG-biotin [CHP-biotin (NH2-…-biotin)]
